The target of the assay is Man9-V3 glycopeptide (HIV-1 (clade B JRFL mini-V3)). As to the kind of experiment: BLI, biotinylated peptide on streptavidin sensor, bivalent avidity model. A general note: In BLI a coated tip is dipped into the sample, and binding shifts an interference pattern.

In the case of DH270.1 (antibody), the Kd came out at 0.331 µM.

The record behind these values is patent publication US20200113997A1.
